Consider five molecules from US20250216381A1 (published 2025).

Experiment in all cases: activation reporter or marker
For experiment [1], the target named is T1, ARHGEF16 R150W peptide on HLA-DRA*01:01 / HLA-DRB1*11:01 (human).
T1 peptide: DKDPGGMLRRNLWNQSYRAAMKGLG

Experiment [2] concerns the target T2, ERGIC2 L176P peptide on HLA-A*03:01 (human).
T2 peptide: RIHGHPYVNK

Experiment [3] deals with T3, HELZ2 P775A peptide on HLA-DPA1*01:03 / HLA-DPB1*104:01 (human).
T3 peptide: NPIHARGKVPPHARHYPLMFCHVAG

In experiment [4] the target is T4, HELZ2 P775A peptide on HLA-DPA1*03:01 / HLA-DPB1*104:01 (human).
T4 peptide: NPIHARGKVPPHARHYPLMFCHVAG

B1: 8434-TCR20 (TCR, V domains shown)
Valpha: KQEVTQIPAALSVPEGENLVLNCSFTDSAIYNLQWFRQDPGKGLTSLLLIQSSQREQTSGRLNASLDKSSGRSTLYIAASQPGDSATYLCAVRHSGNTPLVFGKGTRLSVIA
Vbeta: AVVSQHPSRVICKSGTSVKIECRSLDFQATTMFWYRQFPKQSLMLMATSNEGSKATYEQGVEKDKFLINHASLTLSTLTVTSAHPEDSSFYICSASGGGRTEAFFGQGTRLTVV
In the case of B1, the binding result in experiment [1] is reported as “recognises”.

B2: 8434-TCR23 (TCR, V domains shown)
Valpha: QQQVKQSPQSLIVQKGGISIINCAYENTAFDYFPWYQQFPGKGPALLIAIRPDVSEKKEGRFTISFNKSAKQFSLHIMDSQPGDSATYFCAASRASGGSYIPTFGRGTSLIVHP
Vbeta: GITQSPKYLFRKEGQNVTLSCEQNLNHDAMYWYRQDPGQGLRLIYYSQIVNDFQKGDIAEGYSVSREKKESFPLTVTSAQKNPTAFYLCATKILAGANTGELFFGEGSRLTVL
With B2, in experiment [1], the binding result was “recognises”.

B3: 2599-TCR12 (TCR, V domains shown)
Valpha: EDKVVQSPLSLVVHEGDTVTLNCSYEVTNFRSLLWYKQEKKAPTFLFMLTSSGIEKKSGRLSSILDKKELFSILNITATQTGDSAIYLCGGLNAGGTSYGKLTFGQGTILTVHP
Vbeta: EPEVTQTPSHQVTQMGQEVILRCVPISNHLYFYWYRQILGQKVEFLVSFYNNEISEKSEIFDDQFSVERPDGSNFTLKIRSTKLEDSAMYFCASLGASTYEQYFGPGTRLTVT
B3: the binding result in experiment [2] is on record as “recognises”.

B4: 6932-TCR5 (TCR, V domains shown)
Valpha: RKEVEQDPGPFNVPEGATVAFNCTYSNSASQSFFWYRQDCRKEPKLLMSVYSSGNEDGRFTAQLNRASQYISLLIRDSKLSDSATYLCVVKNQGGKLIFGQGTELSVKP
Vbeta: GVTQTPRYLIKTRGQQVTLSCSPISGHRSVSWYQQTPGQGLQFLFEYFSETQRNKGNFPGRFSGRQFSNSRSEMNVSTLELGDSALYLCASILGGGRGDTQYFGPGTRLTVL
With B4, the binding result in experiment [3] and in experiment [4] was “recognises” each time.

B5: 8434-TCR21 (TCR, V domains shown)
Valpha: KQEVTQIPAALSVPEGENLVLNCSFTDSAIYNLQWFRQDPGKGLTSLLLIQSSQREQTSGRLNASLDKSSGRSTLYIAASQPGDSATYLCAVRRDGTASKLTFGTGTRLQVTL
Vbeta: AVVSQHPSWVICKSGTSVKIECRSLDFQATTMFWYRQFPKQSLMLMATSNEGSKATYEQGVEKDKFLINHASLTLSTLTVTSAHPEDSSFYICSASFPGRGNEQFFGPGTRLTVL
On to B5, for which the binding result in experiment [1] is reported as “recognises”.
